Broadly, the Km is the concentration of substrate that gives half-maximal velocity. What is called kcat is the number of substrate molecules converted per active site and unit of time at saturation. Usually kcat/Km stands for the turnover number divided by the Michaelis constant.

Km, kcat and kcat/Km data for one protein are collected here from article PMC3564036.

Substrate in this series: Nc1ncnc2c1ncn2[C@@H]1O[C@H](COP(=O)(O)OP(=O)(O)O)[C@@H](O)[C@H]1O
In words: purified protein. Type of series: biochemical, Homo sapiens. Particulars: Mg2+.

B1: PPIP5K2 (Homo sapiens) (protein)
chain: MSEAPRFFVGPEDTEINPGNYRHFFHHADEDDEEEDDSPPERQIVVGICSMAKKSKSKPMKEILERISLFKYITVVVFEEEVILNEPVENWPLCDCLISFHSKGFPLDKAVAYAKLRNPFVINDLNMQYLIQDRREVYSILQAEGILLPRYAILNRDPNNPKECNLIEGEDHVEVNGEVFQKPFVEKPVSAEDHNVYIYYPTSAGGGSQRLFRKIGSRSSVYSPESNVRKTGSYIYEEFMPTDGTDVKVYTVGPDYAHAEARKSPALDGKVERDSEGKEVRYPVILNAREKLIAWKVCLAFKQTVCGFDLLRANGQSYVCDVNGFSFVKNSMKYYDDCAKILGNIVMRELAPQFHIPWSIPLEAED
For B1, the Km is 5.2 ± 1.5 µM, the kcat was 0.002 s⁻¹ and the kcat/Km came out at 370 M⁻¹ s⁻¹.
